Results taken from the supplement of paper PMC9233669.
Fewer inactive variants are shown than the library holds.

Key:
[1] = test system: biotinyl-Leu-oxazolone; assay: self-aminoacylation, catalytic enhancement (BLO) (fold over background); higher = more active; k-Seq, kA / k0A0; sequences stand for … in GGGAAUGGAUCCACAUCUACGAAUUC…UUCACUGCAGACUUGACGAAGCUG
Method in brief: (§1)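 The uncatalyzed rate is the low-activity peak of a bimodal Gaussian fit, and catalytic enhancement is median kA divided by it. The kA values came from pseudo-first-order fits, with 1000 bootstraps, of per-sequence fraction reacted measured by streptavidin capture, triplicate qPCR and Illumina sequencing. Mutagenized RNA pools with a 21-nt variable region (0.43 μM) were reacted with each biotinyl-aminoacyl-oxazolone at 2–1250 μM in 50 μL HEPES/NaCl/KCl/MgCl2/CaCl2 buffer with 5% acetonitrile, pH 6.9–7.0, for 90 minutes at room temperature.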

[2] = test system: biotinyl-Ile-oxazolone; assay: self-aminoacylation, catalytic enhancement (BIO) (fold over background); higher = more active; k-Seq, kA / k0A0; sequences stand for … in GGGAAUGGAUCCACAUCUACGAAUUC…UUCACUGCAGACUUGACGAAGCUG
Method in brief: as §1

[3] = test system: biotinyl-Val-oxazolone; assay: self-aminoacylation, catalytic enhancement (BVO) (fold over background); higher = more active; k-Seq, kA / k0A0; sequences stand for … in GGGAAUGGAUCCACAUCUACGAAUUC…UUCACUGCAGACUUGACGAAGCUG
Method in brief: as §1

[4] = test system: biotinyl-Trp-oxazolone; assay: self-aminoacylation, catalytic enhancement (BWO) (fold over background); higher = more active; k-Seq, kA / k0A0; sequences stand for … in GGGAAUGGAUCCACAUCUACGAAUUC…UUCACUGCAGACUUGACGAAGCUG
Method in brief: as §1

[5] = test system: biotinyl-Met-oxazolone; assay: self-aminoacylation, catalytic enhancement (BMO) (fold over background); higher = more active; k-Seq, kA / k0A0; sequences stand for … in GGGAAUGGAUCCACAUCUACGAAUUC…UUCACUGCAGACUUGACGAAGCUG
Method in brief: as §1

[6] = test system: biotinyl-Phe-oxazolone; assay: self-aminoacylation, catalytic enhancement (BFO) (fold over background); higher = more active; k-Seq, kA / k0A0; sequences stand for … in GGGAAUGGAUCCACAUCUACGAAUUC…UUCACUGCAGACUUGACGAAGCUG
Method in brief: as §1

Sequence | self-aminoacylation [1] | self-aminoacylation [2] | self-aminoacylation [3] | self-aminoacylation [4] | self-aminoacylation [5] | self-aminoacylation [6]
AUUAGCCUAGUCAUCGAGUGA [Fam2.1 aminoacylation ribozyme variant] | 2.79 | 2.47 | 2.18 | 3.09 | 2.65 | 4.14
CUACUUCAAACAAUCAGUCUC [Fam1A.1 aminoacylation ribozyme variant] | 0.872 | 0.833 | 0.904 | 8 | 0.723 | 25.9
CUACUUGGAACAAUCGGUCUG [Fam1A.1 aminoacylation ribozyme variant] | 0.788 | 0.831 | 0.833 | 0.642 | 0.904 | 0.848
AUUACCCUGGUAAUCGGGUGA [Fam2.1 aminoacylation ribozyme variant] | 13.1 | 4.26 | 4.83 | 12.1 | 12.4 | 86.9
AUUACCCUGGUCAUCGCGUGU [Fam2.1 aminoacylation ribozyme variant] | 9.06 | 4.14 | 4.84 | 8.25 | 8.31 | 51.7
CUACUUCAGACAAUCGGUGUG [Fam1A.1 aminoacylation ribozyme variant] | 1.5 | 1.23 | 1.4 | 1.7 | 1.57 | 3.43
CUACUUCAGACAAUCGGACUG [Fam1A.1 aminoacylation ribozyme variant] | 0.662 | 0.864 | 0.829 | 0.652 | 0.586 | 0.835
AUACUUCAAACAAUCGGUCAG [Fam1A.1 aminoacylation ribozyme variant] | 0.728 | 0.82 | 0.891 | 1.88 | 0.672 | 3.2
AAGUUUUCUAAUAGUCGCAGG [Fam3.1 aminoacylation ribozyme variant] | 1.55 | 1.59 | 1.52 | 2.19 | 1.6 | 3.74
CAGUUUGUUAAUAGUCGCAAG [Fam3.1 aminoacylation ribozyme variant] | 1.64 | 1.57 | 1.42 | 1.37 | 1.74 | 2.25
CUACUUCUAACAAUCGGUCUC [Fam1A.1 aminoacylation ribozyme variant] | 0.572 | 0.686 | 0.664 | 0.571 | 0.634 | 0.799
CCACUUCAAACAAUCGGUGUG [Fam1A.1 aminoacylation ribozyme variant] | 2.34 | 1.13 | 1.33 | 9.94 | 1.79 | 12.5
CCAGACUUCAAGCAAUCGGCC [Fam1B.1 aminoacylation ribozyme variant] | 4.53 | 3.33 | 3.43 | 6.87 | 4.19 | 17
AUUAGCCUGGACAUCGAGUGA [Fam2.1 aminoacylation ribozyme variant] | 9.56 | 3.91 | 3.53 | 8.52 | 8.78 | 45.3
GUUACCCUGGUUAUCGAGUGA [Fam2.1 aminoacylation ribozyme variant] | 11.8 | 5.48 | 5.74 | 13 | 11.6 | 57.6
AGUACCCUGGUCAUCGAUUGA [Fam2.1 aminoacylation ribozyme variant] | 1.07 | 1.09 | 0.981 | 1.58 | 0.999 | 1.09
AUUACCCUGGUCAUCGAGAGA [Fam2.1 aminoacylation ribozyme variant] | 1.72 | 1.28 | 1.36 | 1.46 | 1.8 | 3.1
ACUACCCUUGUCAUCGAGUGA [Fam2.1 aminoacylation ribozyme variant] | 6.34 | 3.28 | 3.24 | 6.54 | 6.22 | 28.7
AUCCACCUAAGUCAUCGGGUG [Fam2.2 aminoacylation ribozyme variant] | 14.4 | 6.14 | 7.25 | 9.42 | 11.3 | 90.6
CUACUUCAAAAAAUCGGUGUG [Fam1A.1 aminoacylation ribozyme variant] | 1.31 | 0.889 | 0.814 | 1.53 | 0.946 | 1.89
AUUCACCUAGUUCAUGGGGUG [Fam2.2 aminoacylation ribozyme variant] | 10.6 | 4.31 | 4.43 | 7.05 | 8.55 | 66
AUUACCCUGGUCAUCGAAUAA [Fam2.1 aminoacylation ribozyme variant] | 0.914 | 0.801 | 1.15 | 1.41 | 0.987 | 0.904
CUACUUCAAACACUCGUUCUG [Fam1A.1 aminoacylation ribozyme variant] | 0.492 | 0.595 | 0.635 | 0.444 | 0.499 | 0.429
AUCCUUCAAACAAUCGGUCUG [Fam1A.1 aminoacylation ribozyme variant] | 0.809 | 0.755 | 0.688 | 3.9 | 0.822 | 4.27
UCUCACCUAGGUCAUCGGGUG [Fam2.2 aminoacylation ribozyme variant] | 3.81 | 2.33 | 3.09 | 3.84 | 3.73 | 16.1
AUUGACCUAGGUUAUCGGGUG [Fam2.2 aminoacylation ribozyme variant] | 5.36 | 4.71 | 4.7 | 6.6 | 4.96 | 29.1

Sequence | self-aminoacylation [1] | self-aminoacylation [2] | self-aminoacylation [3] | self-aminoacylation [4] | self-aminoacylation [5] | self-aminoacylation [6]
AUCCACCUAGGUCAUCGGGGG [Fam2.2 aminoacylation ribozyme variant] | 5.3 | 4.14 | 2.77 | 4.13 | 3.97 | 2.86
CCACUCUUCAAGCAGUCGGUC [Fam1B.1 aminoacylation ribozyme variant] | 1.24 | 1.04 | 1.1 | 1.28 | 1.03 | 1.07
CUACGUCAAACUAUCGGUCUG [Fam1A.1 aminoacylation ribozyme variant] | 1.72 | 1.58 | 1.76 | 1.58 | 1.95 | 5.88
CUACUUCAAACCAUCGCUCUG [Fam1A.1 aminoacylation ribozyme variant] | 0.915 | 0.878 | 0.982 | 0.532 | 0.762 | 0.394
AUUCACUUAGGUCAACGGGUG [Fam2.2 aminoacylation ribozyme variant] | 4.92 | 2.52 | 2.26 | 3.53 | 3.84 | 21.2
CUACUUCAAACAAUCUGCCUG [Fam1A.1 aminoacylation ribozyme variant] | 0.957 | 0.913 | 0.751 | 0.605 | 1.04 | 1.33
AUUCACCUAGGUCUCCGGGUG [Fam2.2 aminoacylation ribozyme variant] | 9.35 | 4.71 | 4.49 | 8.48 | 7.84 | 47.5
AAGUUUGCUAAUAGUCGCCAG [Fam3.1 aminoacylation ribozyme variant] | 0.962 | 1.02 | 0.997 | 1.39 | 1.03 | 1.41
AUUCACCUAUGUCAUCCGGUG [Fam2.2 aminoacylation ribozyme variant] | 7.19 | 3.78 | 3.51 | 5.69 | 5.26 | 37.6
CGACACUUCAAGCAAUUGGUC [Fam1B.1 aminoacylation ribozyme variant] | 0.668 | 0.908 | 0.718 | 0.777 | 0.864 | 0.985
AAGUUUGCUAAUACUCGCUAG [Fam3.1 aminoacylation ribozyme variant] | 0.594 | 0.63 | 0.507 | 0.445 | 0.532 | 0.624
CGACACUUCAAGCACUCGGUC [Fam1B.1 aminoacylation ribozyme variant] | 1.3 | 1.28 | 1.32 | 2 | 1.38 | 1.46
AUUCACCUAGGUCAUCGCGCG [Fam2.2 aminoacylation ribozyme variant] | 7.72 | 5.42 | 5.13 | 3.32 | 5.13 | 22.4
CUACUUCAAACAAUCGGGAUG [Fam1A.1 aminoacylation ribozyme variant] | 1.19 | 0.904 | 1.02 | 4.46 | 0.844 | 5.85
AUACACCUAGGUCAUCGGUUG [Fam2.2 aminoacylation ribozyme variant] | 1.31 | 1.1 | 1.24 | 1.54 | 1.44 | 3.92
CUACUUCAAACAACCGGUCUG [Fam1A.1 aminoacylation ribozyme variant] | 0.791 | 0.874 | 0.845 | 0.844 | 0.729 | 1.07
AUUACCUUGGUCAUCGUGUGA [Fam2.1 aminoacylation ribozyme variant] | 2.71 | 1.53 | 1.57 | 3.57 | 2.55 | 16.2
AAGUUUGCAAAUACUCGCAAG [Fam3.1 aminoacylation ribozyme variant] | 0.897 | 0.898 | 0.798 | 0.774 | 0.701 | 2.14
AUUACUCUUGUCAUCGAGUGA [Fam2.1 aminoacylation ribozyme variant] | 6.33 | 3.58 | 3.45 | 7.7 | 6.03 | 22
ACUCACCUAGGUAAUCGGGUG [Fam2.2 aminoacylation ribozyme variant] | 3.66 | 3.22 | 2.85 | 4.3 | 4.2 | 23.9
CCACAGUUCAGGCAAUCGGUC [Fam1B.1 aminoacylation ribozyme variant] | 2.28 | 2.02 | 2.27 | 2.25 | 1.65 | 8.63
CCACACUUCAAGCAUUCGAUC [Fam1B.1 aminoacylation ribozyme variant] | 0.577 | 0.664 | 0.856 | 0.748 | 0.629 | 1.11
AUUCACGUAGGUCAUAGGGUG [Fam2.2 aminoacylation ribozyme variant] | 2.36 | 1.67 | 1.92 | 1.97 | 2.17 | 2.23
AAGUUUUCUAAUAGUCGCCAG [Fam3.1 aminoacylation ribozyme variant] | 1.15 | 1.78 | 1.32 | 1.91 | 1.54 | 2.81
CUACUUCAACCAUUCGGUCUG [Fam1A.1 aminoacylation ribozyme variant] | 1.19 | 1.21 | 1.26 | 1.52 | 1.17 | 0.891
